In article PMC5021801:

Experiments:
[1] = target: hypercleavable mutant form of TgAMA1 (AMA1^L/G) on Toxoplasma gondii tachyzoites (Toxoplasma gondii) (UniProt B6KAM0)
[2] = target: FLAG-tagged wild-type TgAMA1 on Toxoplasma gondii tachyzoites (Toxoplasma gondii) (UniProt B6KAM0)

Q: How did the constitutive cleavage and shedding of AMA1^L/G, microneme secretion assay, saturating (1 µM) GST-D3 against GST; percent inhibition [1] turn out when “D3 domain of TgRON2 fused to glutathione S-transferase (GST-D3) (domain or fragment)” was run?
A: 50%

Q: And the amount of FLAG-tagged TgAMA1 ectodomain shed into the supernatant, constitutive microneme secretion assay, against GST-treated controls; dose dependent from 0.01 to 1 µM GST-D3, fold decrease at 5 µM [2]?
A: 5.7 fold
